# Test results taken from patent US20240123068A1 (KITE PHARMA, published 2024).
# T1: Human CD19, wild-type full-length protein expressed on cells (human, UniProt P15391 20-556)
# T1 sequence: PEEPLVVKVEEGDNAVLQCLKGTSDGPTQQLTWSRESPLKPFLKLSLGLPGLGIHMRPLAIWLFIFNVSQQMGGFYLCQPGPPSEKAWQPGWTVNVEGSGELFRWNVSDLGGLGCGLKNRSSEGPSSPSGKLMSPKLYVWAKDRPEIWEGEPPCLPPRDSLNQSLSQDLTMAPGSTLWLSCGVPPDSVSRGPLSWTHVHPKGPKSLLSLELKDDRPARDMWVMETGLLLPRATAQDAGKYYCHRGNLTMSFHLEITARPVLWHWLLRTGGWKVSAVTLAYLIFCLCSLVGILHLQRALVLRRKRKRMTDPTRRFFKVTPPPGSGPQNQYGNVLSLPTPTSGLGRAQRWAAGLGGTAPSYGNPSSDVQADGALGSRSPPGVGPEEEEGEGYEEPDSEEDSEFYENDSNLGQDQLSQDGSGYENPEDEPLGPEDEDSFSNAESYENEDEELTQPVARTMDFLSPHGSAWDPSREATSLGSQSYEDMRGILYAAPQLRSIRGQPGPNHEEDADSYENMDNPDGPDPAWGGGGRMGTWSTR
# T2: FITC-Labeled human CD19 protein (ACROBiosystem, Cat-CD9-HF251) (human, UniProt P15391 20-291, FITC label)
# T2 construct: The text calls the same reagent CD19-FITC and CD19-GFP; also called CD19-FITC protein; CD19-FTC protein
# T2 sequence (looked up): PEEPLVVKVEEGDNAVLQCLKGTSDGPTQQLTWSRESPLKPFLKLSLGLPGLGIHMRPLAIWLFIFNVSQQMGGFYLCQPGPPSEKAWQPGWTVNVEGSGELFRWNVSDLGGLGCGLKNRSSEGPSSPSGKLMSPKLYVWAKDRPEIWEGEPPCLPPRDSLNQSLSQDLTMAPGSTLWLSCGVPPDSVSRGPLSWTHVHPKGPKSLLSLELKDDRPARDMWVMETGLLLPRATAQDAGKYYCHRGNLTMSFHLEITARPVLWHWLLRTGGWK
# Key:
# [1] = target: FCGR1A (FCGR protein) of the membrane proteome array (human) (UniProt P12314); assay: validation titration, flow cytometry on transfected HEK-293T cells
# Chain of FCGR1A (FCGR protein) of the membrane proteome array (human) (P12314 16-374): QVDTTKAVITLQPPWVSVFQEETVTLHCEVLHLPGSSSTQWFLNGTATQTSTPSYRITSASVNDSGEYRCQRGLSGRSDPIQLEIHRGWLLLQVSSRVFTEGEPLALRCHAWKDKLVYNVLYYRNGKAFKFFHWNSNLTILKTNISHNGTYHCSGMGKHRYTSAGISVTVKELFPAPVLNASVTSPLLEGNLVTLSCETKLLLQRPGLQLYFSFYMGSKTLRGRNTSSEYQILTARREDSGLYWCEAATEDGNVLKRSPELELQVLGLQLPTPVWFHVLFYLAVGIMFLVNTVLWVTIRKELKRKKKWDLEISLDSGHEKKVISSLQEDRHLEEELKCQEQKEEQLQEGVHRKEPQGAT
# [2] = target: Protein A (positive assay control transfected into cells) (UniProt P38507); assay: as above
# [3] = target: T1, Human CD19, wild-type full-length …; assay: cell-based or functional assay
# [4] = target: T2, FITC-Labeled human CD19 protein …; assay: flow cytometry, ND539 CAR T cells day 9, CD19-FITC protein only (untransduced 0.85)
# Protocol: At day 9 (D9) post-transduction, frozen ND539 CAR T cells were incubated with a fluorescently labeled recombinant CD19 protein. The CD19 CAR T cells were then analyzed by flow cytometry to determine the binding of the recombinant molecules to the CD19 CAR T cells. ND539 CAR T cells expressing a CAR comprising a FMC63 binder were used as control. Flow was gated for CD19 binder CAR.
# [5] = target: T2, FITC-Labeled human CD19 protein …; assay: flow cytometry, CD19-FITC protein added after anti-FMC63 Ab PE; FITC gate; competitor anti-FMC63 Ab (untransduced 0.86)
# Protocol: To determine whether the anti-FMC63 antibody and the CD19 binders could bind the same region on the CD19 protein, competitive assays were performed. In the first set of experiments, the CD19 CAR T cells were first incubated with 1 ul of anti-FMC63 antibody PE for 20 minutes. After the incubation period, 2 ul of the CD19-FITC protein was added to the CAR T cells, which were further incubated for another 20 minutes. The CAR T cells were washed and assessed by Flow cytometry. The CAR T cells were gated for anti-FMC63 antibody (idiotype antibody binding) and the CD19 CAR binders (CD19-GFP detection).
# [6] = target: T2, FITC-Labeled human CD19 protein …; assay: flow cytometry, premixed CD19-FITC protein and anti-CD19 PE (FMC63 clone) 1:1; FITC gate; competitor anti-CD19 PE (untransduced 0.21)
# Protocol: (§1) In the second set of assays, CAR T cells were co-incubated with the CD19-FTC protein and the anti-CD19 PE (FMC63 clones) at 1:1 or 1:3 ratio for 15 minutes. The CAR T cells were then stained and incubated for 20 minutes before imaging by flow cytometry. […] The CAR T cells were gated for anti-CD19 PE (anti-FMC63 antibody; idiotype antibody binding) and the CD19 binder CAR binder FITC (CD19-GFP detection).
# [7] = target: T2, FITC-Labeled human CD19 protein …; assay: flow cytometry, premixed CD19-FITC protein and anti-CD19 PE (FMC63 clone) 1:3; FITC gate; competitor anti-CD19 PE (untransduced 0.21)
# Protocol: as §1
# [8] = target: T1, Human CD19, wild-type full-length …; assay: scFv clone screen on NALM6 cells with and without CD19
# Description: To ensure that the up to (30) clones could recognize native CD19 expressed on tumor cells, the clones (scFv) were also screened against NALM6 tumor cell line positive (+) CD19 expression (NALM6 cell line⁺ CD19). CD19 knockout Nalm6 cell line (NALM6 cell line⁻ CD1; or CD19KO Nalm6 cell line) were used as a negative control for the selection. CD19KO Nalm6 cell lines used for the screen were engineered CRISPR knocked-out (KO) Nalm6-CD19KO cells. Clones that bound CD19⁺ NALM6 tumor cells, but not CD19-NALM6 tumor cells (CD19KO) were selected (Step 4).
molecule,measurement,setting,value
isotype control article (Example 13),"MFI signal, fold above negative control",[1],> 45 fold
same,"MFI signal, fold above negative control",[2],> 190 fold
"CD19 CAR comprising CD19 binder 45 (anti-CD19 scFv-BBz CAR) on T cells (other, also called CD19-45 CAR; 45 original) DIQMTQSPSSLSASVGDRVTITCRASQDITRYLNWYQQKPGKAPKLLIYAASSLQSGVPSRFSGSGSGTDFTLTISSLQPEDFATYYCQQSYSYPPTFGQGTKVEIKGGGGSGGGGSGGGGSQVQLVESGGGVVQPGRSLRLSCAASGFTFRDYGMHWVRQAPGKGLEWVAVISYEGSNEYYADSVKGRFTISRDNSKNTLYLQMNSLRAEDTAVYYCARDRGFAGWYDYAFDPWGQGTLVTVSSTTTPAPRPPTPAPTIASQPLSLRPEACRPAAGGAVHTRGLDFACDIYIWAPLAGTCGVLLLSLVITLYCKRGRKKLLYIFKQPFMRPVQTTQEEDGCSCRFPEEEEGGCELRVKFSRSADAPAYKQGQNQLYNELNLGRREEYDVLDKRRGRDPEMGGKPRRKNPQEGLYNELQKDKMAEAYSEIGMKGERRRGKGHDGLYQGLSTATKDTYDALHMQALPPR","IL-2 & TNF-α, intracellular cytokine staining, Nalm6 stimulation, ND608 CAR T cells day 9",[3],28.1%
same,"IL-2, intracellular cytokine staining, Nalm6 stimulation, ND608 CAR T cells day 9",[3],1.16%
same,"TNF-α, intracellular cytokine staining, Nalm6 stimulation, ND608 CAR T cells day 9",[3],25.2%
same,Gated for CD19-CAR expression,[4],23.1 mfi
same,Gated for CD19 CAR Expression,[5],17.7 mfi
same,Gated for CD19-CAR-FITC expression,[6],9.64 mfi
same,Gated for CD19-CAR-FITC expression,[7],4.76 mfi
"CD19 CAR comprising CD19 binder 52 (anti-CD19 scFv-BBz CAR) on T cells (other, also called CD19-52 CAR) QSVLTQPPSVSGAPGQRVTISCTGSSSNIGAGYDVHWYQQLPGTAPKLLIYGTKNRPSGVPDRFSGSKSGTSASLAITGLQAEDEADYYCQSYDVRLKGWVFGGGTKLTVLGGGGSGGGGSGGGGSQLQLQESGPGLVKPSETLSLTCTVSGGSITSSSYYWGWIRQPPGKGLEWIGSIYYTGTTYYNPSLKSRVTISVDTSKNQFSLKLSSVTAADTAVYYCARYVGLSGGFDYWGQGTLVTVSSTTTPAPRPPTPAPTIASQPLSLRPEACRPAAGGAVHTRGLDFACDIYIWAPLAGTCGVLLLSLVITLYCKRGRKKLLYIFKQPFMRPVQTTQEEDGCSCRFPEEEEGGCELRVKFSRSADAPAYKQGQNQLYNELNLGRREEYDVLDKRRGRDPEMGGKPRRKNPQEGLYNELQKDKMAEAYSEIGMKGERRRGKGHDGLYQGLSTATKDTYDALHMQALPPR","IL-2 & TNF-α, intracellular cytokine staining, Nalm6 stimulation, ND608 CAR T cells day 9",[3],37%
same,"IL-2, intracellular cytokine staining, Nalm6 stimulation, ND608 CAR T cells day 9",[3],1.06%
same,"TNF-α, intracellular cytokine staining, Nalm6 stimulation, ND608 CAR T cells day 9",[3],36.1%
same,Gated for CD19-CAR expression,[4],30.4 mfi
same,Gated for CD19 CAR Expression,[5],20.1 mfi
same,Gated for CD19-CAR-FITC expression,[6],14.5 mfi
same,Gated for CD19-CAR-FITC expression,[7],5.56 mfi
"CD19 15 scFv (P9) (scFv, also called 50; clone 50) scFv: DIQMTQSPSSLSASVGDRVTITCRASQPIRPYLNWYQQKPGKAPKLLIYDASSLQSGVPSRFSGSGSGTDFTLTISSLQPEDFATYYCQQSYSAPYTFGQGTKVEIKGGGGSGGGGSGGGGSEVQLLESGGGLVQPGGSLRLSCAASGFTFSSYAMSWVRQAPGKGLEWVSVISGGGANTYYADSVKGRFTISRDNSKNTLYLQMNSLRAEDTAVYYCARDWRYFDHWGQGTLVTVSS",binding result,[8],binds
"CD19 16 scFv (P10) (scFv, also called 51; clone 51) scFv: QSVLTQPPSVSGAPGQRVTISCTGSSSNIGAGYDVHWYQQLPGTAPKLLIYGNNNRPSGVPDRFSGSKSGTSASLAITGLQAEDEADYYCQSYDVSLGVWVFGGGTKLTVLGGGGSGGGGSGGGGSQLQLQESGPGLVKPSETLSLTCTVSGGSISSPSYYWGWIRQPPGKGLEWIGSIYYTGATYYNPSLKSRVTISVDTSKNQFSLKLSSVTAADTAVYYCARYGPAGVGFDYWGQGTLVTVSS",binding result,[8],binds
"CD19 18 scFv (P11) (scFv, also called 52; clone 52) scFv: QSVLTQPPSVSGAPGQRVTISCTGSSSNIGAGYDVHWYQQLPGTAPKLLIYGTKNRPSGVPDRFSGSKSGTSASLAITGLQAEDEADYYCQSYDVRLKGWVFGGGTKLTVLGGGGSGGGGSGGGGSQLQLQESGPGLVKPSETLSLTCTVSGGSITSSSYYWGWIRQPPGKGLEWIGSIYYTGTTYYNPSLKSRVTISVDTSKNQFSLKLSSVTAADTAVYYCARYVGLSGGFDYWGQGTLVTVSS",binding result,[8],binds
"CD19 23 scFv (P12) (scFv, also called 53; clone 53) scFv: DIQMTQSPSSLSASVGDRVTITCRASQSIYSYLNWYQQKRGKAPKLLIYDASSLQSGVPSRFSGSGSGTDFTLTISSLQPEDFATYYCQQSYTAPPTFGQGTKVEIKGGGGSGGGGSGGGGSEVQLLESGGGLVQPGGSLRLSCAASGFTFSNYAMSWVRQAPGKGLEWVSAISESGHGTYYADSVKGRFTISRDNSKNTLYLQMNSLRAEDTAVYYCARLDWAGFDVWGQGTLVTVSS",binding result,[8],binds
"CD19 7 scFv (P5) (scFv, also called 46; clone 46) scFv: DIQMTQSPSSLSASVGDRVTITCRASQSISKYLNWYQQKPGKAPKLLIYDASSLQSGVPSRFSGSGSGTDFTLTISSLQPEDFATYYCQQSYTIPLTFGQGTKVEIKGGGGSGGGGSGGGGSQVQLVQSGAEVKKPGSSVKVSCKASGGTFSSYAFSWVRQAPGQGLEWMGGIVPLFGAVEYAQKFQGRVTITADESTSTAYMELSSLRSEDTAVYYCAREKGFYRYFDHWGQGTLVTVSS",binding result,[8],binds
"CD19 10 scFv (P6) (scFv, also called 47; clone 47) scFv: DIQMTQSPSSLSASVGDRVTITCRASQTISRYLNWYQQKPGKAPKLLIYAASSLQSGVPSRFSGSGSGTDFTLTISSLQPEDFATYYCQQSYRPPLTFGQGTKVEIKGGGGSGGGGSGGGGSEVQLLESGGGLVQPGGSLRLSCAASGFTFSSYAMSWVRQAPGKGLEWVSTISAGGHGTYYADSVKGRFTISRDNSKNTLYLQMNSLRAEDTAVYYCARGAGYFDYWGQGTLVTVSS",binding result,[8],binds
"CD19 11 scFv (P7) (scFv, also called 48; clone 48) scFv: DIQMTQSPSSLSASVGDRVTITCRASQSISSYLNWYQQKPGKAPKLLIYAASSLQSGVPSRFSGSGSGTDFTLTISSLQPEDFATYYCQQTGAVPYTFGQGTKVEIKGGGGSGGGGSGGGGSEVQLLESGGGLVQPGGSLRLSCAASGFTFRDYAMSWVRQAPGKGLEWVSAISESGIDTYYADSVKGRFTISRDNSKNTLYLQMNSLRAEDTAVYYCARVAGYDSDSSTYYDYMDVWGQGTLVTVSS",binding result,[8],binds
"CD19 14 scFv (P8) (scFv, also called 49; clone 49) scFv: DIQMTQSPSSLSASVGDRVTITCRASQSISNYLNWYQQKPGKAPKLLIYAASSLQSGVPSRFSGSGSGTDFTLTISSLQPEDFATYYCQQAYSAPITFGQGTKVEIKGGGGSGGGGSGGGGSEVQLLESGGGLVQPGGSLRLSCAASGFTFGDYAMSWVRQAPGKGLEWVSAISRGGHGTYYADSVKGRFTISRDNSKNTLYLQMNSLRAEDTAVYYCARLVGYGLDYWGQGTLVTVSS",binding result,[8],binds
